Data reported in US20250382372A1 (OXFORD UNIVERSITY INNOVATION, published 2025).

Columns and labels:
[1] = molecular target: human CD1a expressed on cells (human) (UniProt P06126); assay: flow cytometry, ear skin cells of a CD1a transgenic mouse given isotype control (row 'CD1a : iso'), stained with anti-CD1a HI149; cell population not named on the sheet
[2] = molecular target: human CD1a expressed on cells (human) (UniProt P06126); assay: flow cytometry, ear skin cells of a CD1a transgenic mouse given antibody 116 (100 ug i.p. on days 0, 2 and 4; row 'CD1a : OX116'), stained on day 5 with anti-CD1a HI149; the cloud of cells lies at the lower edge of the gate
[3] = molecular target: human CD1a expressed on cells (human) (UniProt P06126); assay: flow cytometry, ear skin cells of a CD1a transgenic mouse given isotype control (panel 'CD1a : iso'), stained with anti-CD1a SK9; cell population not named on the sheet
[4] = molecular target: human CD1a expressed on cells (human) (UniProt P06126); assay: flow cytometry, ear skin cells of a CD1a transgenic mouse given antibody 116 (100 ug i.p. on days 0, 2 and 4; panel 'CD1a : OX116'), stained on day 5 with anti-CD1a SK9
[5] = molecular target: Cynomolgus monkey CD1a protein (Cynomolgus monkey); assay: ELISA, Ab 0.01 µg/ml
[6] = molecular target: T1, human CD1b expressed on HEK-293 cells (human, UniProt P29016 18-333; P61769 21-119); assay: flow cytometry, HEK-293
T1 construct: whole, on cells; also called HEK - CD1b
Procedure: (§1) CD1a-specific antibodies were identified by flow cytometry. Binding to proteins expressed on HEK, CIR and MOLT4 cell lines was assessed. […] The C1R-CD1a, C1R-empty vector and MOLT4 cell lines were washed in 1×PBS on the day required. All cell lines were counted and resuspended in 1×PBS and then stained for 30 minutes at 37° C. using the DiI or DiO cellular stains (Invitrogen). Cells were washed with flow cytometry buffer (1% bovine serum albumin, 2 mM EDTA and 0.1% sodium azide in PBS) before mixing 2 DiI-stained and DiO-stained populations together. The cells (20 μl/well) were then added to dilutions of antibody sample (B cell culture supernatant, TAP supernatant, clone supernatant, purified antibody solution) (20 μl/well) and incubated for 1 hour at 4° C. in a flow cytometry assay plate, before being washed with flow cytometry buffer. 10 μl/well of Alexafluor647-conjugated goat anti-species IgG Fc-specific F(ab′)2 fragment (Jackson ImmunoResearch), diluted 1:2500 in flow cytometry buffer, was added and incubated at 4° C. for 30 minutes, followed by washing with wash buffer. The fluorescence intensity was then measured on an iQue screener PLUS.
(§2) HEK-293 cells were transiently transfected with human CD1a, CD1b, CD1c or CD1d and co-transfected with human β2M.

[7] = molecular target: T2, human CD1c expressed on HEK-293 cells (human, UniProt P29017 18-333; P61769 21-119); assay: flow cytometry, HEK-293
T2 construct: whole, on cells; also called HEK - CD1c
Procedure: as §1, §2

[8] = molecular target: T3, human CD1d expressed on HEK-293 cells (human, UniProt P15813 20-335; P61769 21-119); assay: flow cytometry, HEK-293
T3 construct: whole, on cells; also called HEK - CD1d
Procedure: as §1, §2

[9] = molecular target: Cynomolgus monkey CD1a expressed on HEK-293 cells (Cynomolgus monkey); assay: flow, HEK-293, Ab 0.1 µg/ml
[10] = molecular target: Cynomolgus monkey CD1a expressed on HEK-293 cells (Cynomolgus monkey); assay: flow, HEK-293, Ab 1 µg/ml
[11] = molecular target: Cynomolgus monkey CD1a protein (Cynomolgus monkey); assay: ELISA, Ab 1 µg/ml
[12] = molecular target: Cynomolgus monkey CD1a protein (Cynomolgus monkey); assay: ELISA, Ab 10 µg/ml
[13] = molecular target: Cynomolgus monkey CD1a protein (Cynomolgus monkey); assay: ELISA, Ab 0.1 µg/ml
[14] = molecular target: Cynomolgus monkey CD1a expressed on HEK-293 cells (Cynomolgus monkey); assay: flow, HEK-293, Ab 10 µg/ml
[15] = molecular target: Cynomolgus monkey CD1a expressed on HEK-293 cells (Cynomolgus monkey); assay: flow, HEK-293, Ab 0.01 µg/ml
[16] = molecular target: T4, Human CD1a/beta2m heterodimer (HEK293S, deglycosylated, zippers and tags cleaved) (human, UniProt P61769 21-119); assay: SPR (Biacore 3000): biotinylated OX116 scFv on a streptavidin chip, CD1a-LPC (CD1a loaded with lysophosphatidylcholine) injected up to 1000 nM; 1:1 specific binding fit; unit from the legend paragraph 293
T4 construct: Protein of the crystal structures and of the Biacore 3000 SPR experiments; Carries endogenous lipids (CD1a-endo) or a loaded lipid (named under assay); also called CD1a-endo; CD1a loaded with a specific lipid
Procedure: (§3) Depending on the experiment biotinylated scFv molecules were coupled onto the chip surface until a total of 150 or 1000 response units per flow cell were achieved. […] Each lipid was solubilised up to 5-10 mM in 20 mM Tris pH8, 150 mM NaCl and 0.5% CHAPS. CD1a-endo was incubated at room temperature overnight with 15-40× molar excess of lipid. The mixture was subsequently purified by anion exchange chromatography using a MonoQ column (GE Healthcare). Fractions corresponding to lipid-loaded CD1a were pooled together and up-concentrated to 5 μM. Serial dilutions of CD1a up to a maximum concentration of 1 μM were injected for 60 s at 25 C in 20 mM Tris pH8, 150 mM NaCl buffer. The dissociation time between the injections was between 5 minutes up to 1 h. […] Each injection cycle consisted of a 60 s injection of 1 μM CD1a alone immediately followed by increasing concentrations of TCRs (0 to 50 μM) supplemented with 100 nM CD1a to prevent further dissociation of CD1a from the coupled Ab fragment. The runs were performed at 25 C in 20 mM Tris pH8, 150 mM NaCl, 0.5% BSA buffer. In all SPR experiments relative binding response was calculated by subtracting the non-specific response on a reference cell, where an unrelated protein was coupled. The binding curves were obtained by fitting the measured response to a 1:1 specific binding model in GraphPad.

[17] = molecular target: T4, Human CD1a/beta2m heterodimer (HEK293S, …); assay: SPR (Biacore 3000): biotinylated OX116 scFv on a streptavidin chip, CD1a-SM24:1 (CD1a loaded with sphingomyelin 24:1) injected up to 1000 nM; 1:1 specific binding fit; unit from the legend paragraph 293
Procedure: as §3

[18] = molecular target: T4, Human CD1a/beta2m heterodimer (HEK293S, …); assay: SPR (Biacore 3000): biotinylated OX116 scFv on a streptavidin chip, CD1a-GD3 (CD1a loaded with GD3 ganglioside) injected up to 1000 nM; 1:1 specific binding fit; unit from the legend paragraph 293
Procedure: as §3

[19] = molecular target: T4, Human CD1a/beta2m heterodimer (HEK293S, …); assay: SPR (Biacore 3000): biotinylated OX116 scFv on a streptavidin chip, CD1a-endo (CD1a with endogenous lipids) injected up to 1000 nM; 1:1 specific binding fit; unit from the legend paragraph 293
Procedure: as §3

[20] = molecular target: T4, Human CD1a/beta2m heterodimer (HEK293S, …); assay: SPR (Biacore 3000): biotinylated OX16 scFv on a streptavidin chip, CD1a-SM24:1 (CD1a loaded with sphingomyelin 24:1) injected up to 1000 nM; 1:1 specific binding fit; unit from the legend paragraph 293
Procedure: as §3

[21] = molecular target: T4, Human CD1a/beta2m heterodimer (HEK293S, …); assay: SPR (Biacore 3000): biotinylated OX16 scFv on a streptavidin chip, CD1a-endo (CD1a with endogenous lipids) injected up to 1000 nM; response fitted to a 1:1 specific binding model; unit from the legend paragraph 293
Procedure: as §3

[22] = molecular target: T4, Human CD1a/beta2m heterodimer (HEK293S, …); assay: SPR (Biacore 3000): biotinylated OX16 scFv on a streptavidin chip, CD1a-LPC (CD1a loaded with lysophosphatidylcholine) injected up to 1000 nM; 1:1 specific binding fit; unit from the legend paragraph 293
Procedure: as §3

[23] = molecular target: T4, Human CD1a/beta2m heterodimer (HEK293S, …); assay: SPR (Biacore 3000): biotinylated OX16 scFv on a streptavidin chip, CD1a-GD3 (CD1a loaded with GD3 ganglioside) injected up to 1000 nM; 1:1 specific binding fit; unit from the legend paragraph 293
Procedure: as §3

Molecule | Optical Density (OD) [5] [OD] | binding result [6] | binding result [7] | binding result [8] | Fluorescence Intensity Geomean (normalized to background) (fold over background) [9] | Fluorescence Intensity Geomean (normalized to background) (fold over background) [10] | Optical Density (OD) [11] [OD] | Optical Density (OD) [12] [OD] | Optical Density (OD) [13] [OD] | Fluorescence Intensity Geomean (normalized to background) (fold over background) [14] | Fluorescence Intensity Geomean (normalized to background) (fold over background) [15] | also measured
HI149 (antibody) | – | – | – | – | – | – | – | – | – | – | – | CD1a+ (gate frequency, percent of plotted cells; unit not given) [1]: 82.2; CD1a+ (gate frequency, percent of plotted cells; unit not given) [2]: 46.6
SK9 (antibody) | – | – | – | – | – | – | – | – | – | – | – | CD1a+ (gate frequency, percent of plotted cells; unit not given) [3]: 84.9; CD1a+ (gate frequency, percent of plotted cells; unit not given) [4]: 87.4
77A (VR11851) (antibody, V domains shown, V regions were 'cloned as either rabbit or mouse full length antibodies'; also called OX77a; antibody 77a) VH: QSVEESGGRLVTPGTPLTLTCTVSGFSLSSYAMSWVRQAPGKGLEWIGIISSSGTTYYASWAKGRFTISKTSTTVDLKITSPTTEDTATYFCARVDYYSSGWGGLWGPGTLVTVSS VL: AVEMTQTPASMSAAVGGTVTIKCQASEDIYSNLAWYQQKPGQPPKLLIYGASTLASGVPSRFKGSGSGTEYTLTISGVQCDDAATYYCQCTYDTSSYGNTFGGGTEMVVE | 0.1 | no binding (tested: 100 µg/ml) | no binding (tested: 100 µg/ml) | no binding (tested: 100 µg/ml) | 5.7 | 10.6 | 0.43 | 0.52 | 0.24 | 1.4 | 1.7 | –
111 (VR12113) (antibody, V domains shown, also called OX111) VH: QSVEESGGRLVTPGTPLTLTCTASGFSLSTYAMSWVRQAPGKGLEWIGIISSSGSTYYASWAKGRFTISKTSTTVDLKITSPTTEDTATYFCARETWYWLDLWGQGTLVTVSS VL: AVEMTQTPASVSAAVGGTVTINCQASEDIYSNLAWYQQKPGQPPKLLIYGASTLASGVPSRFKGSGSGTEYTLTISGVQCDDAATYYCQCAYDSSSYGTPFGGGTEVVVK | 0.48 | no binding (tested: 100 µg/ml) | no binding (tested: 100 µg/ml) | no binding (tested: 100 µg/ml) | 25.8 | 12.9 | 0.69 | 0.79 | 0.66 | 16.3 | 8.9 | –
110 (VR12112) (antibody, V domains shown, V regions were 'cloned as either rabbit or mouse full length antibodies'; also called OX110; antibody 110) VH: QSVEESGGRLVTPGTPLTLTCTVSGFSLSSYAMIWVRQAPGKGLEWIGIINSSDNTHYATWAKGRFTISKTSTTVDLKITSPTTEDTATYFCARDPYDYGYGWYFDLWGPGTLVTVSS VL: AQVLTQTPSPVSAAVGGTVTINCQASQSVFNNKNLAWYQQKPGQPPKLLIYKASTLASGVSSRFKGSGSGTQFALTISGVQCDDAATYYCQGEFSCSSTDCVTFGGGTEVVVK | 0.22 | no binding (tested: 100 µg/ml) | no binding (tested: 100 µg/ml) | no binding (tested: 100 µg/ml) | 3.3 | – | 0.94 | 0.86 | 0.53 | 13.6 | 1.2 | –
116 (VR12117) (antibody, V domains shown, also called OX116) VH: QSVEESGGRLVTPGTPLTLTCTVSGFSLSNYAMSWVRQAPGKGLEWIGIIYTTGFTYYASWVKGRFTISKTSTTVDLKITSPTTEDTATYFCARGLATYVSPPTRLDLWGQGTLVTVSS VL: AQVLTQTPSPVSAAVGGTVTINCQASQSIYNSKNLAWYQQKPGQPPKLLIYSASTLASGVPSRFKGSGSGTQFTLTISDLECDDAATYYCQGEFSCSSVDCATFGGGTEVVVK | 0.07 | no binding (tested: 100 µg/ml) | no binding (tested: 100 µg/ml) | no binding (tested: 100 µg/ml) | 1 | 0.8 | 0.14 | 0.16 | 0.07 | 1.7 | 1 | –
OX116 scFv (scFv, biotinylated on the C-terminal biotinylation tag (SPR only), The entry holds the leader, VH, linker, VL, 3C site, BirA tag and His tag; For crystallisation the BirA and His tags were cut off with 3C protease; also called OX116 Ab fragment) scFv: DAQSVEESGGRLVTPGTPLTLTCTVSGFSLSNYAMSWVRQAPGKGLEWIGIIYTTGFTYYASWVKGRFTISKTSTTVDLKITSPTTEDTATYFCARGLATYVSPPTRLDLWGQGTLVTVSSGGGGSGGGGSGGGGSAQVLTQTPSPVSAAVGGTVTINCQASQSIYNSKNLAWYQQKPGQPPKLLIYSASTLASGVPSRFKGSGSGTQFTLTISDLESDDAATYYCQGEFSCSSVDCATFGGGTEVVVKSGLEVLFQGPGSGLNDIFEAQKIEWHEHHHHHH | – | – | – | – | – | – | – | – | – | – | – | Kd [16]: 1520 nM; Kd [17]: 529 nM; Kd [18]: 329 nM; Kd [19]: 483 nM
OX16 scFv (scFv, biotinylated on the C-terminal biotinylation tag (SPR only), The entry holds the leader, VH, Gly-Ser linker, VL, 3C site, BirA tag and His tag; For crystallisation the BirA and His tags were cut off with 3C protease; also called 16 ScFv full; single chain variable construct of OX16) scFv: DAEVQLVESGGGLVKPGGSLKLSCAASGFTFSNYAMSWVRQTPEKRLEWVAAINSNGGSAYYPDTVKDRFTISRDNAKNTLYLQMSSLRSEDTALYYCARRFYYDYGWFAYWGQGTLVTVSSGGGGSGGGGSGGGGSDIVLTQSPASLSASVGETVTITCRASENIDSYLAWYQQKQGKSPQLLVYAATLLADGVPSRFSGSGSGTQYSLKINSLQSEDVARYYCQHYYSSPWTFGGGTKLEIKSGLEVLFQGPGSGLNDIFEAQKIEWHEHHHHHH | – | – | – | – | – | – | – | – | – | – | – | Kd [20]: 860 nM; Kd [21]: 476 nM; Kd [22]: 1010 nM; Kd [23]: 1270 nM
